What was measured:
[1] = target: T1, MHC class I molecule HLA-B*0702 (iTopia plate-bound monomer) (biotin (bound to streptavidin-coated plate)); test: iTopia off-rate assay, 37 C; fit R^2 0.81
T1 construct: Commercial iTopia system; also called B7
Method: (§1) The 9 mers were tested for Peptide Binding, Off Rate and Affinity using iTopia Epitope Discovery System in accordance with the manufacturer's instructions. Briefly, 96 well microtitre plates coated with MHC molecules representing different MHC alleles are used to identify candidate peptides. […] Determinations are performed in duplicate using an ELISA plate reader and included allele specific positive controls.
(§2) A one-phase exponential decay curve, with a plateau given equal to 0, was generated using GraphPad Prism® software, which calculated the t1/2 and goodness-of-fit, as measured by r², for each peptide.

[2] = target: T2, MHC class I molecule HLA-A*0201 (iTopia plate-bound monomer) (biotin (bound to streptavidin-coated plate)); test: iTopia off-rate assay, 37 C; fit R^2 0.81
T2 construct: also called A2
Method: as §1, §2

[3] = target: T3, MHC class I molecule HLA-A*0301 (iTopia plate-bound monomer) (biotin (bound to streptavidin-coated plate)); test: iTopia off-rate assay, 37 C; fit R^2 0.01
T3 construct: also called A3
Method: as §1, §2

[4] = target: T2, MHC class I molecule HLA-A*0201 (iTopia …); test: iTopia off-rate assay, 37 C; fit R^2 0.79
Method: as §1, §2

[5] = target: T1, MHC class I molecule HLA-B*0702 (iTopia …); test: iTopia off-rate assay, 37 C; fit R^2 0.1
Method: as §1, §2

[6] = target: T3, MHC class I molecule HLA-A*0301 (iTopia …); test: iTopia off-rate assay, 37 C; fit R^2 0.61
Method: as §1, §2

[7] = target: T2, MHC class I molecule HLA-A*0201 (iTopia …); test: iTopia off-rate assay, 37 C; fit R^2 0.95
How it was run: (§3)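 Each t1/2 is derived by fitting a single-phase exponential decay, with the plateau set to zero, to peptide dissociation from plate-coated MHC. The same fit supplies r² for every peptide. Nonamers are measured in duplicate using an ELISA reader.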

[8] = target: T1, MHC class I molecule HLA-B*0702 (iTopia …); test: iTopia off-rate assay, 37 C; fit R^2 0.68
Method: as §1, §2

[9] = target: T4, MHC class I molecule HLA-A*0101 (iTopia plate-bound monomer) (biotin (bound to streptavidin-coated plate)); test: iTopia off-rate assay, 37 C; fit R^2 0.15
T4 construct: also called A1
Method: as §1, §2

[10] = target: T1, MHC class I molecule HLA-B*0702 (iTopia …); test: iTopia off-rate assay, 37 C; fit R^2 0.86
Method: as §1, §2

[11] = target: T2, MHC class I molecule HLA-A*0201 (iTopia …); test: iTopia off-rate assay, 37 C; fit R^2 0.97
Method: as §1, §2

[12] = target: T3, MHC class I molecule HLA-A*0301 (iTopia …); test: iTopia off-rate assay, 37 C; fit R^2 0.96
Method: as §1, §2

[13] = target: T1, MHC class I molecule HLA-B*0702 (iTopia …); test: iTopia off-rate assay, 37 C; fit R^2 0.87
Method: as §1, §2

[14] = target: T2, MHC class I molecule HLA-A*0201 (iTopia …); test: iTopia off-rate assay, 37 C; fit R^2 0.77
Method: as §1, §2

[15] = target: T3, MHC class I molecule HLA-A*0301 (iTopia …); test: iTopia off-rate assay, 37 C; fit R^2 0.97
Method: as §1, §2

[16] = target: T2, MHC class I molecule HLA-A*0201 (iTopia …); test: iTopia off-rate assay, 37 C; fit R^2 0.76
Method: as §1, §2

[17] = target: T2, MHC class I molecule HLA-A*0201 (iTopia …); test: iTopia off-rate assay, 37 C; fit R^2 0.75
Method: as §1, §2

[18] = target: T1, MHC class I molecule HLA-B*0702 (iTopia …); test: iTopia off-rate assay, 37 C; fit R^2 0.38
Method: as §1, §2

[19] = target: T4, MHC class I molecule HLA-A*0101 (iTopia …); test: iTopia off-rate assay, 37 C; fit R^2 0.12
Method: as §1, §2

[20] = target: T3, MHC class I molecule HLA-A*0301 (iTopia …); test: iTopia off-rate assay, 37 C; fit R^2 0.99
Method: as §1, §2

[21] = target: T1, MHC class I molecule HLA-B*0702 (iTopia …); test: iTopia off-rate assay, 37 C; fit R^2 0.73
Method: as §1, §2

[22] = target: T2, MHC class I molecule HLA-A*0201 (iTopia …); test: iTopia off-rate assay, 37 C; fit R^2 0.2
Method: as §1, §2

[23] = target: T1, MHC class I molecule HLA-B*0702 (iTopia …); test: iTopia off-rate assay, 37 C; fit R^2 0
Method: as §1, §2

[24] = target: T1, MHC class I molecule HLA-B*0702 (iTopia …); test: iTopia off-rate assay, 37 C; fit R^2 0.95
How it was run: as §3

[25] = target: T2, MHC class I molecule HLA-A*0201 (iTopia …); test: iTopia off-rate assay, 37 C; fit R^2 0.58
Method: as §1, §2

[26] = target: T2, MHC class I molecule HLA-A*0201 (iTopia …); test: iTopia off-rate assay, 37 C; fit R^2 0.42
Method: as §1, §2

[27] = target: T3, MHC class I molecule HLA-A*0301 (iTopia …); test: iTopia off-rate assay, 37 C; fit R^2 0.64
Method: as §1, §2

[28] = target: T1, MHC class I molecule HLA-B*0702 (iTopia …); test: iTopia off-rate assay, 37 C; fit R^2 0.82
Method: as §1, §2

[29] = target: T2, MHC class I molecule HLA-A*0201 (iTopia …); test: iTopia off-rate assay, 37 C; fit R^2 0.11
Method: as §1, §2

[30] = target: T4, MHC class I molecule HLA-A*0101 (iTopia …); test: iTopia off-rate assay, 37 C; fit R^2 0.18
Method: as §1, §2

[31] = target: T2, MHC class I molecule HLA-A*0201 (iTopia …); test: iTopia off-rate assay, 37 C; fit R^2 0.72
Method: as §1, §2

[32] = target: T1, MHC class I molecule HLA-B*0702 (iTopia …); test: iTopia off-rate assay, 37 C; fit R^2 0.76
Method: as §1, §2

[33] = target: T2, MHC class I molecule HLA-A*0201 (iTopia …); test: iTopia off-rate assay, 37 C; fit R^2 0.3
Method: as §1, §2

[34] = target: T4, MHC class I molecule HLA-A*0101 (iTopia …); test: iTopia off-rate assay, 37 C; fit R^2 0.76
Method: as §1, §2

[35] = target: T2, MHC class I molecule HLA-A*0201 (iTopia …); test: iTopia off-rate assay, 37 C; fit R^2 0.87
Method: as §1, §2

[36] = target: T2, MHC class I molecule HLA-A*0201 (iTopia …); test: iTopia off-rate assay, 37 C; fit R^2 0.26
Method: as §1, §2

[37] = target: T1, MHC class I molecule HLA-B*0702 (iTopia …); test: iTopia off-rate assay, 37 C; fit R^2 0.94
How it was run: as §3

[38] = target: T2, MHC class I molecule HLA-A*0201 (iTopia …); test: iTopia off-rate assay, 37 C; fit R^2 0.9
How it was run: as §3

[39] = target: T2, MHC class I molecule HLA-A*0201 (iTopia …); test: iTopia off-rate assay, 37 C; fit R^2 0.02
Method: as §1, §2

[40] = target: T3, MHC class I molecule HLA-A*0301 (iTopia …); test: iTopia off-rate assay, 37 C; fit R^2 0.84
Method: as §1, §2

[41] = target: T3, MHC class I molecule HLA-A*0301 (iTopia …); test: iTopia off-rate assay, 37 C; fit R^2 0.77
Method: as §1, §2

[42] = target: T2, MHC class I molecule HLA-A*0201 (iTopia …); test: iTopia off-rate assay, 37 C; fit R^2 0
Method: as §1, §2

B1: 5T4 9-mer peptide 117 LPSLRHLDL (peptide)
peptide: LPSLRHLDL
notes: also called Peptide No 117
t½ half life [1]: 3 h | t½ half life [2]: 0.7 h

B2: 5T4 9-mer peptide 100 VVAALLAGR (peptide)
peptide: VVAALLAGR
notes: also called Peptide No 100
t½ half life [3]: 8.1 h

B3: 5T4 9-mer peptide 101 AALLAGRAL (peptide)
peptide: AALLAGRAL
t½ half life [4]: 1.9 h | t½ half life [5]: 1.6 h

B4: 5T4 9-mer peptide 104 RALQGLRRL (peptide)
peptide: RALQGLRRL
t½ half life [6]: 0.4 h | t½ half life [7]: 0.6 h | t½ half life [8]: 6 min

B5: 5T4 9-mer peptide 109 LASNHFLYL (peptide)
peptide: LASNHFLYL
t½ half life [9]: 3 h | t½ half life [10]: 0.2 h | t½ half life [11]: 1.3 h | t½ half life [12]: 3.6 h

B6: 5T4 9-mer peptide 113 LPRDVLAQL (peptide)
peptide: LPRDVLAQL
t½ half life [13]: 3.3 h

B7: 5T4 9-mer peptide 115 VLAQLPSLR (peptide)
peptide: VLAQLPSLR
t½ half life [14]: 0.6 h | t½ half life [15]: 0.2 h

B8: 5T4 9-mer peptide 120 LDLSNNSLV (peptide)
peptide: LDLSNNSLV
notes: also called Peptide No 120
t½ half life [16]: 3.4 h

B9: 5T4 9-mer peptide 121 LSNNSLVSL (peptide)
peptide: LSNNSLVSL
t½ half life [17]: 0.8 h | t½ half life [18]: 4.1 h

B10: 5T4 9-mer peptide 125 LTYVSFRNL (peptide)
peptide: LTYVSFRNL
t½ half life [19]: 3.9 h | t½ half life [20]: 0.7 h | t½ half life [21]: 6 h | t½ half life [22]: 8.1 h

B11: 5T4 9-mer peptide 126 YVSFRNLTH (peptide)
peptide: YVSFRNLTH
notes: also called Peptide No 126
t½ half life [12]: 0.9 h | t½ half life [23]: 2.6 h

B12: 5T4 9-mer peptide 137 LHNGTLAEL (peptide)
peptide: LHNGTLAEL
notes: also called Peptide No 137
t½ half life [24]: 0.3 h | t½ half life [25]: 4.2 h

B13: 5T4 9-mer peptide 142 GLPHIRVFL (peptide)
peptide: GLPHIRVFL
notes: also called Peptide No 142
t½ half life [26]: 12.9 h | t½ half life [27]: 6 h | t½ half life [28]: 0.9 h

B14: 5T4 9-mer peptide 157 EVVQGKDRL (peptide)
peptide: EVVQGKDRL
t½ half life [29]: 11 h

B15: 5T4 9-mer peptide 161 LTCAYPEKM (peptide)
peptide: LTCAYPEKM
notes: also called Peptide No 161
t½ half life [30]: 3.7 h | t½ half life [31]: 3.1 h

B16: 5T4 9-mer peptide 163 YPEKMRNRV (peptide)
peptide: YPEKMRNRV
notes: also called Peptide No 163
t½ half life [32]: 1.9 h

B17: 5T4 9-mer peptide 164 EKMRNRVLL (peptide)
peptide: EKMRNRVLL
t½ half life [33]: 7 h

B18: 5T4 9-mer peptide 177 QTSYVFLGI (peptide)
peptide: QTSYVFLGI
notes: also called Peptide No 177
t½ half life [34]: 0.2 h | t½ half life [35]: 0.6 h

B19: 5T4 9-mer peptide 179 VFLGIVLAL (peptide)
peptide: VFLGIVLAL
notes: also called Peptide No 179
t½ half life [36]: 15 h

B20: 5T4 9-mer peptide 182 LALIGAIFL (peptide)
peptide: LALIGAIFL
notes: also called Peptide No 182
t½ half life [37]: 0.5 h | t½ half life [38]: 3.2 h

B21: 5T4 9-mer peptide 183 LIGAIFLLV (peptide)
peptide: LIGAIFLLV
notes: also called Peptide No 183
t½ half life [39]: 19.4 h | t½ half life [40]: 0.5 h

B22: 5T4 9-mer peptide 186 LLVLYLNRK (peptide)
peptide: LLVLYLNRK
notes: also called Peptide No 186
t½ half life [41]: 3.2 h | t½ half life [42]: 21.4 h
